Assays:
Test in all cases: ELISA; receptor in solution, complex captured on BMP-7 GF mAb
[1] = biological target: BMP-7 complex containing biotinylated prodomain (prodomain biotinylated through amines, reconstituted with … (human, UniProt P18075 293-431, biotin through amines (EZ-Link NHS-PEG4-Biotin)))
[2] = biological target: BMP-7 complex containing biotinylated GF (mature BMP-7 biotinylated through the glycan, reconstituted with … (human, UniProt P18075 293-431, biotin through the sugars (sodium metaperiodate, hydrazide PEG4 Biotin)))
[3] = biological target: unbiotinylated BMP-7 complex (bone morphogenetic protein 7 mature domain/prodomain soluble complex) (human, UniProt P18075 293-431)
Chain of unbiotinylated BMP-7 complex (bone morphogenetic protein 7 mature domain/prodomain soluble complex) (P18075 30-292, chain 1 of 2): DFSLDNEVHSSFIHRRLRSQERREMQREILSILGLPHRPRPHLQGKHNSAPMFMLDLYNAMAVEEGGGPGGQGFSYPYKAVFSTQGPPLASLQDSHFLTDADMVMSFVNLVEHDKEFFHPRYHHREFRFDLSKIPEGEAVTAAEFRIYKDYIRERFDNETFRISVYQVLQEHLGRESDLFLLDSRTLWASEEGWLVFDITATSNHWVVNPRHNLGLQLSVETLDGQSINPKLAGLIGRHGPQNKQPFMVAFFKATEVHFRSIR
Chain of unbiotinylated BMP-7 complex (bone morphogenetic protein 7 mature domain/prodomain soluble complex) (P18075 293-431, chain 2 of 2): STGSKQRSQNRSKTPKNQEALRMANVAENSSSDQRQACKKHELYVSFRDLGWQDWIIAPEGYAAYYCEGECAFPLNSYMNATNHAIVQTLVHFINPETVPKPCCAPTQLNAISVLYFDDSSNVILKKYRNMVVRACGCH

Chain of BMP-7 complex containing biotinylated prodomain (prodomain biotinylated through amines, reconstituted with … (P18075 30-292, chain 1 of 2): as the sequence (P18075 30-292, chain 1 of 2) above
Chain of BMP-7 complex containing biotinylated prodomain (prodomain biotinylated through amines, reconstituted with … (P18075 293-431, chain 2 of 2): as the sequence (P18075 293-431, chain 2 of 2) above
Chain of BMP-7 complex containing biotinylated GF (mature BMP-7 biotinylated through the glycan, reconstituted with … (P18075 30-292, chain 1 of 2): as the sequence (P18075 30-292, chain 1 of 2) above
Chain of BMP-7 complex containing biotinylated GF (mature BMP-7 biotinylated through the glycan, reconstituted with … (P18075 293-431, chain 2 of 2): as the sequence (P18075 293-431, chain 2 of 2) above

B1: BMPR2-Fc (bone morphogenetic protein receptor type-2 fused to Fc) (Fc fusion)
chain: SQNQERLCAFKDPYQQDLGIGESRISHENGTILCSKGSTCYGLWEKSKGDINLVKQGCWSHIGDPQECHYEECVVTTTPPSIQNGTYRFCCCSTDLCNVNFTENFPPPDTTPLSPPHSFNRDET
Kd [1]: 19 nM
Kd [2]: 8.7 nM
Kd [3]: 11.9 nM
